Assay results as given in patent US20070141139A1, “COMPOSITION FOR INTESTINAL DELIVERY” (priority 2000, published 2007).

How the values were obtained:
[1] = cited from earlier work
coho salmon = conditions: orally intubated with rbGH and antacid, 7-week trial; cited from earlier work
[2] = in vivo; cited from earlier work
[3] = in vivo; cited from earlier work; remark: listed apart in the source
[4] = in vivo; cited from earlier work; remark: listed apart in the source
salmonids = conditions: in vivo; cited from earlier work
rainbow trout = experiment: Growth of rainbow trout after intraperitoneal injection of recombinant bST; format: in vivo, Oncorhynchus mykiss; conditions: IP, 20 μg bST/g live body weight weekly for 6 weeks; FIG. 4
Description: Intraperitoneal (IP) administration dose per fish weekly was 20 μg bST/g live body weight for 6 weeks.

[5] = test system: proteolytic enzymes, enzyme extract of proximal small intestine; experiment: In vitro proteolytic enzyme inhibition by feed ingredients (casein hydrolysis); format: biochemical, rainbow trout; conditions: increasing level of inhibitor inclusion; FIGS. 5-12
Description: • 1. Centrifuge Sorvall model • 2. Bench-top blender • 3. Dissecting material (scissors) • 4. Centrifuge bottle • 5. Disposable cuvettes for spectrophotometer • 6. Microcentrifuge tubes 1,5 ml • 7. Spectrophotometer • 8. Vortexer • 9. Microplates reader from Biorad • 10. 50 mM Tris-HCl pH=7.5 • 11. Commassie blue staining solution • 12. BSA (1 mg\ml) standard solution • 13. TCA 20% • 14. Rainbow trouts pancreatic and duodenal tissues • 15. 0.5% casein in 50 mM Tris-HCl pH=9 • 16. 50 mM Tris-HCl+CaCl2 10 mM pH=7.5 Enzyme Extract • 1. Rainbow trout were weighed and sacrificed. • 2. Dissection was performed to remove the proximal small intestine from the fish. • 3. After weighing, the tissues were homogenised in 50 mM Tris-HCl ph=7.5 (1:10 w\v). • 4. Centrifuge at 16000×g for 30 min at 4° C. • 5. Keep the supernatant. Aliquot and store them at −20 C for further use. • 6. Perform Commassie assay to measure the amount of protein present in the enzyme extract. Commassie Blue Stain Protocol • 1. Weigh 160 mg of BSA in 10 ml of […] Tris-HCl pH=7.5. • 2. […] Read at 655 nm with the microplate reader from Biorad. […] Centrifuge at 12000×g for 5 min and read at 280 nm. […] Centrifuge at 12000×g for 5 min and read at 280 nm. […] Centrifuge at 12000×g for 5 min and read at 280 nm. […] Centrifuge at 12000×g for 5 min and read at 280 nm. […] Centrifuge at 12000×g for 5 min and read at 280 nm. […]

Molecule: CCCCCCCCC(=O)N(C)C[C@H](O)[C@@H](O)[C@H](O)[C@H](O)CO [Mega-9, reference compound]
- plasma HRP presence compared to controls ([1]; co-delivery with HRP): almost double
- growth performance compared to fish dosed with GH alone (coho salmon): significantly increases growth performance

Molecule: CC[C@@]1([C@@H]2O[C@@H]([C@H]3O[C@@](O)(CO)[C@H](C)C[C@@H]3C)C[C@@H]2C)CC[C@H]([C@]2(C)CC[C@]3(C[C@H](O)[C@@H](C)[C@@H]([C@@H](C)[C@@H](OC)[C@H](C)C(=O)O)O3)O2)O1 [monensin]
- effect upon HRP absorption [2]: no effect upon HRP absorption

Molecule: horseradish peroxidase: tracer protein, horseradish peroxidase type 1 (Sigma)
- time to transport to the circulation after oral administration [3]: ≤ 1 h

Molecule: human growth hormone: human growth hormone given with a suspension of sodium salicylate in oil
- bioavailability (with reference to intravenous) [4]: 10-20%

B1: bovine GH (bGH): bovine growth hormone (protein, UniProt P01246 27-217, looked up)
Somatotropin: AFPAMSLSGLFANAVLRAQHLHQLAADTFKEFERTYIPEGQRYSIQNTQVAFCFSETIPAPTGKNEAQQKSDLELLRISLLLIQSWLGPLQFLSRVFTNSLVFGTSDRVYEKLKDLEEGILALMRELEDGTPRAGQILKQTYDKFDTNMRSDDALLKNYGLLSCFRKDLHKTETYLRVMKCRRFGEASCAF
- increase in growth rate (salmonids): two to three-fold increase in growth rate

B2: recombinant bST: recombinant bovine somatotropin (Monsanto Co.) (protein, UniProt P01246 27-217, looked up)
Somatotropin: AFPAMSLSGLFANAVLRAQHLHQLAADTFKEFERTYIPEGQRYSIQNTQVAFCFSETIPAPTGKNEAQQKSDLELLRISLLLIQSWLGPLQFLSRVFTNSLVFGTSDRVYEKLKDLEEGILALMRELEDGTPRAGQILKQTYDKFDTNMRSDDALLKNYGLLSCFRKDLHKTETYLRVMKCRRFGEASCAF
- body weight gain (rainbow trout): significantly induces increased body weight gain

B3: lyophylized ovalbumin: protease inhibitor component of the Oralject™ cocktail (protein, UniProt P01012 2-386, looked up)
Ovalbumin: GSIGAASMEFCFDVFKELKVHHANENIFYCPIAIMSALAMVYLGAKDSTRTQINKVVRFDKLPGFGDSIEAQCGTSVNVHSSLRDILNQITKPNDVYSFSLASRLYAEERYPILPEYLQCVKELYRGGLEPINFQTAADQARELINSWVESQTNGIIRNVLQPSSVDSQTAMVLVNAIVFKGLWEKAFKDEDTQAMPFRVTEQESKPVQMMYQIGLFRVASMASEKMKILELPFASGTMSMLVLLPDEVSGLEQLESIINFEKLTEWTSSNVMEERKIKVYLPRMKMEEKYNLTSVLMAMGITDVFSSSANLSGISSAESLKISQAVHAAHAEINEAGREVVGSAEAGVDAASVSEEFRADHPFLFCIKHIATNAVLFFGRCVSP
modifications: lyophilized
- in vitro proteolytic enzyme inhibition [5]: affect to differing degrees the inhibition

B4: spray-dried ovalbumin: protease inhibitor component of the Oralject™ cocktail (protein, UniProt P01012 2-386, looked up)
Ovalbumin: GSIGAASMEFCFDVFKELKVHHANENIFYCPIAIMSALAMVYLGAKDSTRTQINKVVRFDKLPGFGDSIEAQCGTSVNVHSSLRDILNQITKPNDVYSFSLASRLYAEERYPILPEYLQCVKELYRGGLEPINFQTAADQARELINSWVESQTNGIIRNVLQPSSVDSQTAMVLVNAIVFKGLWEKAFKDEDTQAMPFRVTEQESKPVQMMYQIGLFRVASMASEKMKILELPFASGTMSMLVLLPDEVSGLEQLESIINFEKLTEWTSSNVMEERKIKVYLPRMKMEEKYNLTSVLMAMGITDVFSSSANLSGISSAESLKISQAVHAAHAEINEAGREVVGSAEAGVDAASVSEEFRADHPFLFCIKHIATNAVLFFGRCVSP
modifications: spray-dried
- in vitro proteolytic enzyme inhibition [5]: affect to differing degrees the inhibition

B5: soya bean trypsin inhibitor: enzyme inhibitor co-delivered with HRP to rainbow trout (protein, UniProt P01070 25-205, looked up)
Trypsin inhibitor A: DFVLDNEGNPLENGGTYYILSDITAFGGIRAAPTGNERCPLTVVQSRNELDKGIGTIISSPYRIRFIAEGHPLSLKFDSFAVIMLCVGIPTEWSVVEDLPEGPAVKIGENKDAMDGWFRLERVSDDEFNNYKLVFCPQQAEDDKCGDIGISIDHDDGTRRLVVSKNKPLVVQFQKLDKESL
- oral absorption of HRP ([1]; in vivo, po): increased
